# Results taken from IntAct's records for PubMed 26342861.
# B1: Wnt inhibitory factor 1 (Homo sapiens), Q9Y5W5 (parent)
# chain: MARRSAFPAAALWLWSILLCLLALRAEAGPPQEESLYLWIDAHQARVLIGFEEDILIVSEGKMAPFTHDFRKAQQRMPAIPVNIHSMNFTWQAAGQAEYFYEFLSLRSLDKGIMADPTVNVPLLGTVPHKASVVQVGFPCLGKQDGVAAFEVDVIVMNSEGNTILQTPQNAIFFKTCQQAECPGGCRNGGFCNERRICECPDGFHGPHCEKALCTPRCMNGGLCVTPGFCICPPGFYGVNCDKANCSTTCFNGGTCFYPGKCICPPGLEGEQCEISKCPQPCRNGGKCIGKSKCKCSKGYQGDLCSKPVCEPGCGAHGTCHEPNKCQCQEGWHGRHCNKRYEASLIHALRPAGAQLRQHTPSLKKAEERRDPPESNYIW
# partner: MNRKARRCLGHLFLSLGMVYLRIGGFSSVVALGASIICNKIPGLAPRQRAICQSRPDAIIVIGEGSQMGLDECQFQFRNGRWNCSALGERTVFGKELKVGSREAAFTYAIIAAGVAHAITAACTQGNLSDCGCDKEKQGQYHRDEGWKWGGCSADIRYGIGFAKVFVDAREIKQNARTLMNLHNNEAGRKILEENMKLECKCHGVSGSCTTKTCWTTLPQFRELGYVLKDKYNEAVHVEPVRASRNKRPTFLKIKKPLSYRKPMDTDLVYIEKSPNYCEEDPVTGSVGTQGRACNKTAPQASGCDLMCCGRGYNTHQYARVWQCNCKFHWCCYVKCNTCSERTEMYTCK
# B2: Wnt inhibitory factor 1 (Homo sapiens), Q9Y5W5 (parent)
# chain: B1 chain
# partner: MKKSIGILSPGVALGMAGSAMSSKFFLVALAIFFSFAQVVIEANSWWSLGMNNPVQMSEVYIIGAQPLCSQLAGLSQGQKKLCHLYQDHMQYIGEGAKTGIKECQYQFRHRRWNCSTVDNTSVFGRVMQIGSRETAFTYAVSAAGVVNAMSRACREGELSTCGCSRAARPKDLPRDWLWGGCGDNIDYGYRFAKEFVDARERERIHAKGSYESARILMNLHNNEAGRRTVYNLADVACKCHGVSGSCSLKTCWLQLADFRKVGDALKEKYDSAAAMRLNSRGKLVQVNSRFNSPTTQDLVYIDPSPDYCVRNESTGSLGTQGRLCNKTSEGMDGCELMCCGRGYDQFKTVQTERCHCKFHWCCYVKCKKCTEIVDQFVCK
# Variants of: B1
# Details: with wnt7a_human WNT7A
row,Variant,effect of a mutation on the interaction
1,I172R,decreasing interaction
2,I155R,decreasing interaction
3,L123R,decreasing interaction

# Variants of: B1
# Details: with wnt7a_human WNT7A
# Remark: another data set of the same source
row,Variant,effect of a mutation on the interaction
1,I155R,increasing interaction

# Variants of: B2
# Details: with wnt5a_human WNT5A
row,Variant,effect of a mutation on the interaction
1,I155R,disrupting interaction

# Variants of: B2
# Details: with wnt5a_human WNT5A
# Remark: another data set of the same source
row,Variant,effect of a mutation on the interaction
1,I155R,decreasing interaction
